Results taken from US20200216522A1 (DENALI THERAPEUTICS, published 2020).
Square brackets hold non-standard residues; d marks the D form. * marks the point of attachment. Biotin = O=C1N[C@H]2[C@H](CS[C@H]2CCCCC(=O)*)N1; pS = N[C@@H](COP(=O)(O)O)C(=O)O

T1: Tau 346-360 peptide, unphosphorylated (human, SMILES …)
T1 peptide: Biotin-FKDRVQSKIGSLDNI-NH2

T2: Tau 346-360 peptide phosphorylated at Ser356 (human, SMILES …)
T2 construct: also called pSer356
T2 peptide: Biotin-FKDRVQSKIG[pS]LDNI-NH2

T3: Tau 251-270 peptide, unphosphorylated (human, N-terminal biotin; C-terminal amide)
T3 peptide: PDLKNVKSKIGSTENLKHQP

T4: Tau 251-270 peptide phosphorylated at both Ser258 and Ser262 (human, N-terminal biotin; C-terminal amide; phosphoserine at 258 and 262 (numbering of SEQ ID NO:1))
T4 construct: also called pSer258 and pSer262 peptide
T4 peptide: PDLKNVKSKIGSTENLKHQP

T5: Tau 346-360 peptide phosphorylated at Ser352 (human, SMILES …)
T5 construct: also called pSer352
T5 peptide: Biotin-FKDRVQ[pS]KIGSLDNI-NH2

T6: Tau 186-205 peptide (17G2.A1 peptide) (human, N-terminal biotin)
T6 peptide: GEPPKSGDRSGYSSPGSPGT


How the values were obtained:
[1] = target: T1, Tau 346-360 peptide, unphosphorylated; assay: ELISA on biotinylated peptide
Protocol: (§1) Peptides corresponding to original binding sites on the microarray were synthesized and included all permutations of phospho-serine epitopes. Peptides were synthesized with a biotinylated N-terminus and C-terminal amide. Peptides were purified and confirmed by mass spectrometry. Peptides were then bound to streptavidin-coated plates in half serial dilutions from 250 ng/well of each peptide. Antibody binding was tested at 1 μg/mL in 5% BSA TBST, followed by washing and detection with goat anti-human HRP (as described above in the “Chimeric IgG ELISA” section).

[2] = target: T2, Tau 346-360 peptide phosphorylated at …; assay: ELISA on biotinylated peptide
Protocol: as §1

[3] = target: T3, Tau 251-270 peptide, unphosphorylated; assay: ELISA on biotinylated peptide
Protocol: as §1

[4] = target: T4, Tau 251-270 peptide phosphorylated at …; assay: ELISA on biotinylated peptide
Protocol: as §1

[5] = target: T5, Tau 346-360 peptide phosphorylated at …; assay: ELISA on biotinylated peptide
Protocol: as §1

[6] = target: T7, full-length human Tau (Tau441; 2N4R), recombinant (human, UniProt P10636 1-758); assay: Octet binning on biotin-r-Tau; row antibody Ab107 (anti-BACE1 control)
T7 construct: made in E. coli, His6-Smt3 tag removed; biotinylated through amines for Octet and phage work; also called r-Tau; recombinant Tau
Protocol: (§2) Epitope binning assays were performed using a FortéBio® Octet® RED384 instrument using FortéBio® Streptavidin biosensors. Biotinylated recombinant Tau was diluted to a concentration of 2 μg/mL in kinetic buffer (obtained from FortéBio®) and captured onto individual biosensors for 1 minute. A baseline was then established for 1 minute in kinetic buffer. The loaded biosensors were dipped into 10 μg/mL of the first chimeric IgG antibody until signal saturation, followed by dipping into 1 μg/mL of a second antibody. The binding for the second antibody was normalized to its total binding in the absence of the first antibody.

[7] = target: T7, full-length human Tau (Tau441; 2N4R), …; assay: Octet binning on biotin-r-Tau; competitor 1D10
Protocol: as §2

[8] = target: T7, full-length human Tau (Tau441; 2N4R), …; assay: Octet binning on biotin-r-Tau; competitor 1C7
Protocol: as §2

[9] = target: T7, full-length human Tau (Tau441; 2N4R), …; assay: Octet binning on biotin-r-Tau; competitor 1G7
Protocol: as §2

[10] = target: T6, Tau 186-205 peptide (17G2.A1 peptide); assay: direct ELISA on biotinylated peptide
Protocol: The peptides were diluted in 3% BSA/TBST in 0.5 log dilutions starting at 1 μg/mL and bound to neutravidin coated plates. Plates were washed 5× with TBST between all steps. 17G2.A1 was diluted to 5 μg/mL in 3% BSA/TBST and incubated for 1 hour at room temperature, followed by incubation with anti-mouse IgG-HRP (Novex) diluted 1/5000 in BSA/TBST for 45 minutes at room temperature. ELISAs were developed with 50 μL of 1-step TMB Ultra.

cynomolgus monkey Tau = target: T8, cynomolgus monkey Tau (cynomolgus monkey, UniProt P57786 2-459 (rhesus entry)); assay: ELISA, hybridoma antibody
T8 construct: also called cyno Tau; cyno-Tau
Protocol: Primary screening was performed by coating 96-well ELISA Nunc plates overnight at 4° C. with 1 μg/mL r-Tau in PBS. The plates were washed three times with PBST using a Biotek plate washer. 50 µL/well of hybridoma supernatants were added to the plates with incubation at room temperature for 1 hour. Plates were washed three times with PBST. A secondary detection antibody goat X m HRP (Southern Biotech) at 1:2000 dilution, 50 μL/well was added to the plate and incubated for 1 hour at room temperature. At the end of an hour, plates were washed three time with PBST. Plates were developed with 50 μL/well of TMB substrate (Thermo Fisher) and quenched with 50 μL/well of 1N sulfuric acid. The signal was quantified on a BioTek® plate reader at A450. Wells with an OD three times the background for r-Tau were considered positive and carried forward for secondary screening.
Positives from primary screening were carried forward into the secondary screening where they were screened by ELISA using the above protocol on r-Tau, p-Tau, and cyno-Tau for binding and cross-reactivity. Further characterization on the five different Tau isoforms was performed by the same method.

[11] = target: T7, full-length human Tau (Tau441; 2N4R), …; assay: SPR Biacore, antibody captured, r-Tau injected
Protocol: The affinity of each hybridoma antibody for r-Tau was determined by surface plasmon resonance using a Biacore™ T200 instrument. Biacore™ Series S CM5 sensor chips were immobilized with polyclonal rabbit anti-mouse IgG (Fc) antibody (mouse antibody capture kit from GE Healthcare). 1 μg/mL of antibody was captured for 1 minute on each flow cell and serial 3-fold dilutions of r-Tau were injected at a flow rate of […]. Each sample was analyzed with a 3-minute association and a 10-minute dissociation. After each injection, the chip was regenerated using 10 mM Glycine-HCl (pH 1.7). Binding response was corrected by subtracting the RU from a flow cell capturing an irrelevant IgG at similar density. A 1:1 Languir model of simultaneous fitting of kₒₙ and koff was used for kinetics analysis.

T7 sequence (P10636 other isoform, or with tags, fused parts or gaps limits assumed): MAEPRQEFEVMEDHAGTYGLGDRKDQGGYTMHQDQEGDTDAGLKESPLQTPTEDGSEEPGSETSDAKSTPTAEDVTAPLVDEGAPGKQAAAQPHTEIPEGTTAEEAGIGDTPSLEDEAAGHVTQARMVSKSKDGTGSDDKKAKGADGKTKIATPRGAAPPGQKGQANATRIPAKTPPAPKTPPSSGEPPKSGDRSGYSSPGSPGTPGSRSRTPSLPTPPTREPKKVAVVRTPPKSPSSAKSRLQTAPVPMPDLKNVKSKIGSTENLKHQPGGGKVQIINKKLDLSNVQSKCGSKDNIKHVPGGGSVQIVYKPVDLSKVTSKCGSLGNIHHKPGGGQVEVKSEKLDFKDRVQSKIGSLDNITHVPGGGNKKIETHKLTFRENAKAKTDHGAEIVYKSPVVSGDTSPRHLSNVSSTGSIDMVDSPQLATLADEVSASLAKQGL
T8 sequence (P57786 other isoform, or with tags, fused parts or gaps limits assumed): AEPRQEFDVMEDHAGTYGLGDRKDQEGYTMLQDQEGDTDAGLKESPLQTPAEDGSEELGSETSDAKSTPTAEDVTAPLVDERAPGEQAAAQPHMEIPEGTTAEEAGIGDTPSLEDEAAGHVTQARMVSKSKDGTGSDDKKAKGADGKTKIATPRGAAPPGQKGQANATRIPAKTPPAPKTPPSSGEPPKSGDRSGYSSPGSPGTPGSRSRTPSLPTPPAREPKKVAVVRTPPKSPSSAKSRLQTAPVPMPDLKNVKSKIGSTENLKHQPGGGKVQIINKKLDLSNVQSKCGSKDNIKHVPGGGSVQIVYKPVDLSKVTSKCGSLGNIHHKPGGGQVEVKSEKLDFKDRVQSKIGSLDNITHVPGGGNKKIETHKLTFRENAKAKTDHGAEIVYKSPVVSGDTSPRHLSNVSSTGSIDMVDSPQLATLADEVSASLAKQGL

Row | Binder | binding result [1] | binding result [2] | binding result [3] | binding result [4] | binding result [5] | normalized binding of second antibody [6] | normalized binding of second antibody [7] | normalized binding of second antibody [8] | normalized binding of second antibody [9] | binding result [10] | binding result (cynomolgus monkey Tau) | Kd [11] | koff [11] | kon [11]
1 | chimeric IgG clone 1A1 (antibody, V domains shown, mouse-human chimeric IgG from HEK293; also called anti-Tau 1A1; anti-Tau^1A1) VH: EVQLQQSGAELVRPGASVRLSCTASGFNIKDSLMHWLKQRPEQGLEWIGWIDPEDGETKYAPKFQDKATITADTSSNTAYLQLSSLTSEDTAIYYCTRRDWEGPWGQGTLVTVSA VL: not shown | binds | binds | binds | binds | binds |  |  |  |  |  |  |  |  | 
2 | chimeric IgG clone 1G7 (antibody, V domains shown, mouse-human chimeric IgG from HEK293) VH: EVQLQQSGAEVVRPGASVKLSCTTSGFNIKDSLMHWLKQRPEQGLEWIGWIDPEDGETKYAPKFQDKATITADTSSNTAYLQLSSLTSGDTAIYYCARRDWEGPWGQGTLVTVSA VL: not shown | binds |  | binds |  | binds | 1 | -0.12 | 0.85 | -0.03 |  |  |  |  | 
3 | murine anti-Tau hybridoma antibody 17G2.A1 (antibody, V domains shown, mouse IgG from hybridoma; also called anti-Tau 17G2.A1) VH: QVQLQQPGAELVGPGSSVKLSCKASGYTFINYWIDWMKQSPGQGLEWIGNIYPSDSESHYNQKFTDKATLTVDISSSTAYLQLSSLTSEDSAVYYCALYSKGYWGQGTSVTVSS VL: DVLMTQTPLSLPVTLGDQASISCRSSQNIVHTNGNTYLEWYLQKPGQSPKLLIYKLSSRFSGVPDRFSGSGSGTDFTLKISRVEAEDLGVYYCFQGSHLPFTFGGGTKLEIKR |  |  |  |  |  |  |  |  |  | binds | binds | 2.48 nM | 0.000383 s⁻¹ | 155000 M⁻¹ s⁻¹
4 | chimeric IgG clone 1A5 (antibody, V domains shown, mouse-human chimeric IgG from HEK293) VH: EVQLQQSGAELVRPGASVKLSCTASGFNIKDSLIHWVKQRPEQGLEWIGWIDPEDGETKYAPKFQDKATKTADTSSNTAYLQLSSLTSEDTAIYYCASGEWDYWGQGTSVTVSS VL: not shown | binds |  | binds |  |  | 1 | -0.35 | 0.7 | -0.1 |  |  |  |  | 
5 | chimeric IgG clone 1D10 (antibody, V domains shown, mouse-human chimeric IgG from HEK293) VH: EVQLQQSGAELVRPGASVKLSCTASGFNIKDSLMHWMKQRPEQGLEWIGWIDPEDGETKYAPKFQDKATLTADTSSNAAYLQLSSLTSEDTAIYYCVRGDWDGGYWGQGTTLTVSS VL: not shown | binds |  | binds |  |  | 1 | -0.05 | 0.88 | 0.12 |  |  |  |  | 
